Experimental data from publication PMC6053351, “Structural and biochemical insights into human zinc finger protein AEBP2 reveals interactions with RBBP4”.

Molecular target: AEBP2 ZF1-3 (Homo sapiens, UniProt Q6ZN18 258-357)
Assay: fluorescence polarization; FPA with dsDNA: 25 mM Tris pH 7.4, 150 mM salt (salt identity and rest truncated in material), 50 nM FAM-DNA, 200 ul; G3A4 buffer and temperature not given in material
Conditions: protein: recombinant, tags: His6
[1] = label: 5'-FAM on sense strand, blunt

AEBP2 ZF1-3, sequence (Q6ZN18 258-357): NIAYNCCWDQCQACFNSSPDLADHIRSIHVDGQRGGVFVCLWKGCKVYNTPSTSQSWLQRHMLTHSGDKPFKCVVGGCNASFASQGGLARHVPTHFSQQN

B1: T1 (dsDNA)
DNA 1: GATCTTTAGTTAACTTCCTCTCTGTCTGCAGGCCACTCCAGATC
DNA 2: GATCTGGAGTGGCCTGCAGACAGAGAGGAAGTTAACTAAAGATC
Does B1 bind [1]?
Result: no binding

B2: AT-rich (dsDNA)
DNA 1: ATAATTTATATTTATTATTTTATTATAATTTATATAATTTATAT
DNA 2: ATATAAATTATATAAATTATAATAAAATAATAAATATAAATTAT
Does B2 bind [1]?
Result: no binding

B3: GC-rich (dsDNA)
DNA 1: GCGGCCCGCGCCCGCCGCCCCGCCGCGGCCCGCGCGGCCCGCGC
DNA 2: GCGCGGGCCGCGCGGGCCGCGGCGGGGCGGCGGGCGCGGGCCGC
Does B3 bind [1]?
Result: no binding

Does AAAAAAGGGAAAAGGGAAAAGGGAAAAGGGAAAAAAAAAA (structured_DNA) [G3A4] bind (label: 5'-FAM, G4)?
Result: no binding
